Test results as given in IntAct's records for PubMed 19338389.

B1: Transcription factor p65 (Mus musculus), Q04207 (parent)
chain: MDDLFPLIFPSEPAQASGPYVEIIEQPKQRGMRFRYKCEGRSAGSIPGERSTDTTKTHPTIKINGYTGPGTVRISLVTKDPPHRPHPHELVGKDCRDGYYEADLCPDRSIHSFQNLGIQCVKKRDLEQAISQRIQTNNNPFHVPIEEQRGDYDLNAVRLCFQVTVRDPAGRPLLLTPVLSHPIFDNRAPNTAELKICRVNRNSGSCLGGDEIFLLCDKVQKEDIEVYFTGPGWEARGSFSQADVHRQVAIVFRTPPYADPSLQAPVRVSMQLRRPSDRELSEPMEFQYLPDTDDRHRIEEKRKRTYETFKSIMKKSPFNGPTEPRPPTRRIAVPTRNSTSVPKPAPQPYTFPASLSTINFDEFSPMLLPSGQISNQALALAPSSAPVLAQTMVPSSAMVPLAQPPAPAPVLTPGPPQSLSAPVPKSTQAGEGTLSEALLHLQFDADEDLGALLGNSTDPGVFTDLASVDNSEFQQLLNQGVSMSHSTAEPMLMEYPEAITRLVTGSQRPPDPAPTPLGTSGLPNGLSGDEDFSSIADMDFSALLSQISS
partner: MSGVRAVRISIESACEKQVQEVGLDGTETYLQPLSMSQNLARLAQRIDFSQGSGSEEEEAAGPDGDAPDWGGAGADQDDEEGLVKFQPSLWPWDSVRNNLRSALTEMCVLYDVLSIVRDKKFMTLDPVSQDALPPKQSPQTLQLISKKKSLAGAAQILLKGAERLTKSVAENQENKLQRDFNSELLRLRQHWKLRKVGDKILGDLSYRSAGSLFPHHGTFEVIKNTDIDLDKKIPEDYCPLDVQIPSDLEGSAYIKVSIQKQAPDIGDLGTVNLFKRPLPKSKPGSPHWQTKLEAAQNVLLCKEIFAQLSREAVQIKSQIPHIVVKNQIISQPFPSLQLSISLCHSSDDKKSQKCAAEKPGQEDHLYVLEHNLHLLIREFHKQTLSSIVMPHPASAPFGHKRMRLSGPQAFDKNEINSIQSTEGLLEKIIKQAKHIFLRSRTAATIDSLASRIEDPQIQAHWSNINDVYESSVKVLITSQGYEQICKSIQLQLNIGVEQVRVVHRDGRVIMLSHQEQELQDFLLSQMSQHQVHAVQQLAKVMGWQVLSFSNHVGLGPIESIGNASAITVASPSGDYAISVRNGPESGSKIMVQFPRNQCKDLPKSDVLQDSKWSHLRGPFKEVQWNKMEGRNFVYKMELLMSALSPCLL

Variants of: B1
Conditions: with med17_mouse Med17, Q8VCD5

effect of a mutation on the interaction	Variant
disrupting interaction	MDDLFPLIFPSEPAQASGPYVEIIEQPKQRGMRFRYKCEGRSAGSIPGERSTDTTKTHPTIKINGYTGPGTVRISLVTKDPPHRPHPHELVGKDCRDGYYEADLCPDRSIHSFQNLGIQCVKKRDLEQAISQRIQTNNNPFHVPIEEQRGDYDLNAVRLCFQVTVRDPAGRPLLLTPVLSHPIFDNRAPNTAELKICRVNRNSGSCLGGDEIFLLCDKVQKEDIEVYFTGPGWEARGSFSQADVHRQVAIVFRTPPYADPSLQAPVRVSMQLRRPSDRELSEPMEFQYLPDTDDRHRIEEKRKRTYETFKSIMKKSPFNGPTEPRPPTRRIAVPTRNSTSVPKPAPQPYTFPASLSTINFDEFSPMLLPSGQISNQALALAPSSAPVLAQTMVPSSAMVPLAQPPAPAPVLTPGPPQSLSAPVPKSTQAGEGTLSEALLHLQFDADEDLGALLGNSTDPGVFTDLASVDNSEFQQLLNQGVSMSHSTAEPMLMEYPEAITRLVTGSQRPPDPAPTPLGTSGLPNGLSGDEDFSSIADMAASALLSQISS [D539A;F540A]
disrupting interaction	MDDLFPLIFPSEPAQASGPYVEIIEQPKQRGMRFRYKCEGRSAGSIPGERSTDTTKTHPTIKINGYTGPGTVRISLVTKDPPHRPHPHELVGKDCRDGYYEADLCPDRSIHSFQNLGIQCVKKRDLEQAISQRIQTNNNPFHVPIEEQRGDYDLNAVRLCFQVTVRDPAGRPLLLTPVLSHPIFDNRAPNTAELKICRVNRNSGSCLGGDEIFLLCDKVQKEDIEVYFTGPGWEARGSFSQADVHRQVAIVFRTPPYADPSLQAPVRVSMQLRRPSDRELSEPMEFQYLPDTDDRHRIEEKRKRTYETFKSIMKKSPFNGPTEPRPPTRRIAVPTRNSTSVPKPAPQPYTFPASLSTINFDEFSPMLLPSGQISNQALALAPSSAPVLAQTMVPSSAMVPLAQPPAPAPVLTPGPPQSLSAPVPKSTQAGEGTLSEALLHLQFDADEDLGALLGNSTDPGVFTDLASVDNSEFQQLLNQGVSMSHSTAEPMLMEYPEAITRLVTGSQRPPDPAPTPLGTSGLPNGLSAAASAAAIADMDFSALLSQISS [G528A;D529A;E530A;D531S;F532A;S533A;S534A]
disrupting interaction	MDDLFPLIFPSEPAQASGPYVEIIEQPKQRGMRFRYKCEGRSAGSIPGERSTDTTKTHPTIKINGYTGPGTVRISLVTKDPPHRPHPHELVGKDCRDGYYEADLCPDRSIHSFQNLGIQCVKKRDLEQAISQRIQTNNNPFHVPIEEQRGDYDLNAVRLCFQVTVRDPAGRPLLLTPVLSHPIFDNRAPNTAELKICRVNRNSGSCLGGDEIFLLCDKVQKEDIEVYFTGPGWEARGSFSQADVHRQVAIVFRTPPYADPSLQAPVRVSMQLRRPSDRELSEPMEFQYLPDTDDRHRIEEKRKRTYETFKSIMKKSPFNGPTEPRPPTRRIAVPTRNSTSVPKPAPQPYTFPASLSTINFDEFSPMLLPSGQISNQALALAPSSAPVLAQTMVPSSAMVPLAQPPAPAPVLTPGPPQSLSAPVPKSTQAGEGTLSEALLHLQFDADEDLGALLGNSTDPGVFTDLASVDNSEFQQLLNQGVSMSHSTAEPMLMEYPEAITRLVTGSQRPPDPAPTPLGTSGLPNGLSGDEDFSSAAASAAAALLSQISS [I535A;D537A;M538S;D539A;F540A;S541A]
